Experimental data reported in US20260125665.

Assays:
[1] = system: Microlyse variant 1.1
[2] = system: Microlyse variant 1.0

Thrombin
cleavage by thrombin (reducing SDS-PAGE, Western blot with anti-human UPA antibody) [1]: For both ML 1.0 and ML 1.1 a distinct band at around 35 Kd is observed, indicating cleavage of Microlyse by thrombin.
cleavage by thrombin (reducing SDS-PAGE, Western blot with anti-human UPA antibody) [2]: For both ML 1.0 and ML 1.1 a distinct band at around 35 Kd is observed, indicating cleavage of Microlyse by thrombin.
